Experimental data taken from paper doi:10.1101/2021.01.26.428356, “Sequence signatures of two IGHV3-53/3-66 public clonotypes to SARS-CoV-2 receptor binding domain” (bioRxiv, 2021).

B1: COVA2-20 Fab, wild type (Y58) (Fab, V domains shown)
VH: EVQLVESGGGLIQPGGSLRLSCAASGFTVSSNYMSWVRQAPGKGLEWVSVIYSGGSTYYADSVKGRFTISRDNSKNTLYLQMNSLRAEDTAVYYCASPLLLTPPDYYYYMDVWGKGTMVTVSS
VL: DVVMTQSPSSLSVSVGDRVTITCRASQGIRNDLGWYQQKPGKAPKRLIYAASSLQSGVPSRFSGSGSGTEFTLTISSLQPEDFATYYCLQHNSYLWTFGQGTKLEIK
B2: COV107-23 Fab, wild type (F58) (Fab, V domains shown)
VH: EVQLVESGGGLIQPGGSLRLSCAASGFTVSSNYMSWVRQAPGKGLEWVSVIYSGGSTFYADSVKGRFTISRDNSKNTLYLQMNSLRAEDTAVYYCARDLGTGLFDYWGQGTLVTVSS
VL: DIQLTQSPSFLSASVGDRVTITCRASQGISSYLAWYQQKPGKAPKLLIYAASTLQSGVPSRFSGSGSGTEFTLTISSLQPEDFATYYCQQLDSYPPGTFGPGTKVDIK
notes: also called WT COV107-23; clonotype 1 antibody; source: Expi293F, transiently co-transfected, purified (CaptureSelect CH1-XL column)

Biological target: T1, Fc-tagged receptor-binding domain (RBD) of the SARS-CoV-2 spike (S) protein (SARS-CoV-2, Wuhan-Hu-1 (GenBank …, UniProt P0DTC2))
T1 construct: also called SARS-CoV-2 RBD; SARS-CoV-2 S RBD-Fc; not shown: Fc, C-terminal, kept
Assay: BLI; Octet Red96e; Fc-tagged RBD loaded onto the biosensor (streptavidin biosensors as printed), Fab in solution; 1x PBS pH 7.4, 0.01% w/v BSA, 0.002% v/v Tween 20; 60 s association, 60 s dissociation; 1:1 binding model
Conditions: both partners purified

Row | Binder | binding result | Kd [nM]
1 | B1 | binds | 
2 | B2 |  | 1
